This is an account of results in patent US20190256612A1 (NEW YORK UNIVERSITY, published 2019).

Assay [1] has as its target T1, glutaraldehyde polymerized Aβ1-42 (oligomeric Aβ1-42) (UniProt P05067 672-713).
T1 construct: domain: Aβ1-42
Put plainly: SPR, polymerized Aβ1-42 immobilised, antibody injected. For orientation: Surface plasmon resonance follows binding to a sensor surface in real time, without labels.

A further assay deals with T2, Aβ40p (Covalently polymerized with glutaraldehyde into stable oligomers. The cross-links between copies cannot be carried by the letters, so only the monomer unit is given.).
T2 construct: also called Aβ1-40 polymerized; Aβ1-40 polymerized with glutaraldehyde
In words: immunoblot after SDS-PAGE, antigen on nitrocellulose, anti-mouse IgM detection. (Immunoblotting shows a protein as a band on a membrane.)

Another assay has as its target T3, Aβ1-40.
T3 construct: also called Aβ1-40 as loaded on the gel (not polymerized)
The assay is described as above.

B1: anti-β-sheet conformational monoclonal antibody (aβComAb) GW-23B7 (antibody)
heavy: EVQLQQSVAELVRPGASVKLSCTASGFNIKNTYMHWVKQRPEQGLEWIGRIDPANGNTKYAPKFQGKATITADTSSNTAYLQLSSLTSEDTAIYYCARGSFYAMDYWGQGTSVTVSSESQSFPNVFPLVSCESPLSDKNLVAMGCLARDFLPSTISFTWNYQNNTEVIQGIRTFPTLRTGGKYLATSQVLLSPKSILEGSDEYLVCKIHYGGKNRDLHVPIPAVAEMNPNVNVFVPPRDGFSGPAPRKSKLICEATNFTPKPITVSWLKDGKLVESGFTTDPVTIENKGSTPQTYKVISTLTISEIDWLNLNVYTCRVDHRGLTFLKNVSSTCAASPSTDILTFTIPPSFADIFLSKSANLTCLVSNLATYETLNISWASQSGEPLETKIKIMESHPNGTFSAKGVASVCVEDWNNRKEFVCTVTHRDLPSPQKKFISKPNEVHKHPPAVYLLPPAREQLNLRESATVTCLVKGFSPADISVQWLQRGQLLPQEKYVTSAPMPEPGAPGFYFTHSILTVTEEEWNSGETYTCVVGHEALPHLVTERTVDKSTGKPTLYNVSLIMSDTGGTCY
light: DVQITQSPSYLAASPGETITINCRASKSINKYLAWYQEKPGKTNKLLIYSGSTLQSGIPSRFSGSGSGTDFTLTISSLEPEDFAMYHCQQHNEYPWTFGGGTKLEIKRADAAPTVSIFPPSSEQLTSGGASVVCFLNNFYPRDINVKWKIDGSERQNGVLNSWTDQDSKDSTYSMSSTLTLTKDEYERHNSYTCEATHKTSTSPIVKSFNRNEC
Regarding B1, the dissociation constant Kd (as a rule, a measure of binding affinity in units of concentration) in assay [1] is 14 nM. The binding result in the assay with Aβ40p and in the assay with Aβ1-40 was “binds” in each case.
